Key:
Details in all cases: remark: other sources report otherwise
hMPV050 (hMPV A), Q6WB98 = experiment: BLI, 50C stress
hMPV062 (hMPV A), Q6WB98 = experiment: BLI, 50C stress
hMPV054 (hMPV A), Q6WB98 = experiment: BLI, 50C stress
hMPV075 (hMPV A), Q6WB98 [1] = experiment: BLI, 50C stress
hMPV061 (hMPV A), Q6WB98 = experiment: BLI, 50C stress
hMPV047 (hMPV A), Q6WB98 [2] = experiment: BLI, 50C stress
hMPV052 (hMPV A), Q6WB98 = experiment: BLI, 50C stress
hMPV043 (hMPV A), Q6WB98 [3] = experiment: BLI, 50C stress
hMPV055 (hMPV A), Q6WB98 [4] = experiment: BLI, 50C stress
hMPV048 (hMPV A), Q6WB98 [5] = experiment: BLI, 50C stress
hMPV049 (hMPV A), Q6WB98 = experiment: BLI, 50C stress
hMPV053 (hMPV A), Q6WB98 [6] = experiment: BLI, 50C stress
hMPV066 (hMPV A), Q6WB98 = experiment: BLI, 50C stress
hMPV071 (hMPV A), Q6WB98 [7] = experiment: BLI, 50C stress
hMPV069 (hMPV A), Q6WB98 [8] = experiment: BLI, 50C stress
hMPV045 (hMPV A), Q6WB98 [9] = experiment: BLI, 50C stress
hMPV044 (hMPV A), Q6WB98 = experiment: BLI, 50C stress
hMPV067 (hMPV A), Q6WB98 = experiment: BLI, 50C stress
hMPV059 (hMPV A), Q6WB98 = experiment: BLI, 50C stress
hMPV060 (hMPV A), Q6WB98 [10] = experiment: BLI, 50C stress
[11] = biological target: hMPV A F WT Control (hMPV A), Q6WB98; experiment: BLI, 50C stress
hMPV063 (hMPV A), Q6WB98 [12] = experiment: BLI, 50C stress
hMPV068 (hMPV A), Q6WB98 = experiment: BLI, 50C stress
hMPV046 (hMPV A), Q6WB98 [13] = experiment: BLI, 50C stress
hMPV077 (hMPV A), Q6WB98 = experiment: BLI, 50C stress
hMPV058 (hMPV A), Q6WB98 [14] = experiment: BLI, 50C stress
hMPV075 (hMPV A), Q6WB98 [15] = experiment: BLI, no stress
hMPV047 (hMPV A), Q6WB98 [16] = experiment: BLI, no stress
hMPV043 (hMPV A), Q6WB98 [17] = experiment: BLI, no stress
hMPV055 (hMPV A), Q6WB98 [18] = experiment: BLI, no stress
hMPV048 (hMPV A), Q6WB98 [19] = experiment: BLI, no stress
hMPV053 (hMPV A), Q6WB98 [20] = experiment: BLI, no stress
hMPV071 (hMPV A), Q6WB98 [21] = experiment: BLI, no stress
hMPV069 (hMPV A), Q6WB98 [22] = experiment: BLI, no stress
hMPV045 (hMPV A), Q6WB98 [23] = experiment: BLI, no stress
hMPV060 (hMPV A), Q6WB98 [24] = experiment: BLI, no stress
hMPV063 (hMPV A), Q6WB98 [25] = experiment: BLI, no stress
hMPV046 (hMPV A), Q6WB98 [26] = experiment: BLI, no stress
hMPV058 (hMPV A), Q6WB98 [27] = experiment: BLI, no stress

B1: MPE8 mAb (antibody, V domains shown)
VH: EVQLVESGGGLVKPGGSLRLSCAASGFTFSSYSMNWVRQAPGKGLEWVSSISASSSYSDYADSAKGRFTISRDNAKTSLFLQMNSLRAEDTAIYFCARARATGYSSITPYFDIWGQGTLVTVSS
VL: QSVVTQTPSVSGAPGQRVTISCTGSSSNIGAGYDVHWYQQLPGTAPKLLIYDNNNRPSGVPDRFSASKSGTSASLAITGLQAEDEADYYCQSYDRNLSGVFGTGTKVTVL
Response Shift (hMPV050 (hMPV A), Q6WB98): 0.14 nm
Response Shift (hMPV062 (hMPV A), Q6WB98): 0.253 nm
Response Shift (hMPV054 (hMPV A), Q6WB98): 0.381 nm
Response Shift (hMPV075 (hMPV A), Q6WB98 [1]): 0.506 nm
Response Shift (hMPV061 (hMPV A), Q6WB98): 0.537 nm
Response Shift (hMPV047 (hMPV A), Q6WB98 [2]): -0.024 nm
Response Shift (hMPV052 (hMPV A), Q6WB98): 0.482 nm
Response Shift (hMPV043 (hMPV A), Q6WB98 [3]): 0.501 nm
Response Shift (hMPV055 (hMPV A), Q6WB98 [4]): 0.098 nm
Response Shift (hMPV048 (hMPV A), Q6WB98 [5]): 0.377 nm
Response Shift (hMPV049 (hMPV A), Q6WB98): 0.343 nm
Response Shift (hMPV053 (hMPV A), Q6WB98 [6]): 0.422 nm
Response Shift (hMPV066 (hMPV A), Q6WB98): 0.666 nm
Response Shift (hMPV071 (hMPV A), Q6WB98 [7]): 0.671 nm
Response Shift (hMPV069 (hMPV A), Q6WB98 [8]): 0.355 nm
Response Shift (hMPV045 (hMPV A), Q6WB98 [9]): 0.139 nm
Response Shift (hMPV044 (hMPV A), Q6WB98): 0.722 nm
Response Shift (hMPV067 (hMPV A), Q6WB98): 0.571 nm
Response Shift (hMPV059 (hMPV A), Q6WB98): 0.344 nm
Response Shift (hMPV060 (hMPV A), Q6WB98 [10]): 0.712 nm
Response Shift [11]: 0.174 nm
Response Shift (hMPV063 (hMPV A), Q6WB98 [12]): 0.57 nm
Response Shift (hMPV068 (hMPV A), Q6WB98): 0.194 nm
Response Shift (hMPV046 (hMPV A), Q6WB98 [13]): 0.412 nm
Response Shift (hMPV077 (hMPV A), Q6WB98): 0.472 nm
Response Shift (hMPV058 (hMPV A), Q6WB98 [14]): 0.403 nm
Response Shift (hMPV075 (hMPV A), Q6WB98 [15]): 0.777 nm
Response Shift (hMPV047 (hMPV A), Q6WB98 [16]): 0.259 nm
Response Shift (hMPV043 (hMPV A), Q6WB98 [17]): 0.558 nm
Response Shift (hMPV055 (hMPV A), Q6WB98 [18]): 0.581 nm
Response Shift (hMPV048 (hMPV A), Q6WB98 [19]): 0.596 nm
Response Shift (hMPV053 (hMPV A), Q6WB98 [20]): 0.624 nm
Response Shift (hMPV071 (hMPV A), Q6WB98 [21]): 0.804 nm
Response Shift (hMPV069 (hMPV A), Q6WB98 [22]): 0.651 nm
Response Shift (hMPV045 (hMPV A), Q6WB98 [23]): 0.603 nm
Response Shift (hMPV060 (hMPV A), Q6WB98 [24]): 0.84 nm
Response Shift (hMPV063 (hMPV A), Q6WB98 [25]): 0.849 nm
Response Shift (hMPV046 (hMPV A), Q6WB98 [26]): 0.603 nm
Response Shift (hMPV058 (hMPV A), Q6WB98 [27]): 0.684 nm
